Experimental data reported in paper PMC10868842, “Structural basis of the recognition of adeno-associated virus by the neurological system-related receptor carbonic anhydrase IV” (PLOS Pathogens, 2024).

Each binder was assayed against T1, AAV9P31 capsid (adeno-associated virus 9 variant with the 7-mer WPTSYDA inserted in VP3 VR-VIII) (adeno-associated virus 9, UniProt Q6JC40 1-736, WPTSYDA inserted between Q588 and A589) (assay: cryo-EM structure; AAV9P31 on the grid, Car4 (W22-S277) added and incubated for 5 minutes; icosahedral reconstruction and block-based reconstruction of the 3-fold axis blocks). Conditions: both partners purified.
T1 construct: Assembled icosahedral virus particle carrying a GFP genome; capsids made from a RepCap plasmid usually hold VP1, VP2 and VP3 (surmise); also called AAV9P31 particles; AAV9P31 virion; source: HEK293T, triple-plasmid transfection, purified (iodixanol gradient ultracentrifugation)

Binder	stoichiometry N [Car4 per virion]
Mus musculus carbonic anhydrase IV (Car4), amino acids W22 to S277 (receptor, carbonic anhydrase IV (Car4), Mus musculus, residues 22-277 (W22 to S277); the functional rows use this molecule for Car4; also called wt Car4; truncated Car4 (22-277); not shown: GST, N-terminal, cleaved) WCYEIQTKDPRSSCLGPEKWPGACKENQQSPINIVTARTKVNPRLTPFILVGYDQKQQWPIKNNQHTVEMTLGGGACIIGGDLPARYEAVQLHLHWSNGNDNGSEHSIDGRHFAMEMHIVHKKLTSSKEDSKDKFAVLAFMIEVGDKVNKGFQPLVEALPSISKPHSTSTVRESSLQDMLPPSTKMYTYFRYNGSLTTPNCDETVIWTVYKQPIKIHKNQFLEFSKNLYYDEDQKLNMKDNVRPLQPLGKRQVFKS	~3

These binders were tested against T1, AAV9P31 capsid (adeno-associated virus …) (assay: SPR; BIAcore 8K; AAV9P31 particles immobilised on a CM5 chip by amide coupling (sodium acetate pH 4.0); WT or mutated Car4 proteins flowed over at 30 ul/min, 25 °C, PBST; regeneration with 10 mM glycine pH 2.0). Conditions: both partners purified.

Binder	Kd [nM]
Mus musculus carbonic anhydrase IV (Car4), amino acids W22 to S277 (receptor, carbonic anhydrase IV (Car4), Mus musculus, residues 22-277 (W22 to S277); the functional rows use this molecule for Car4; also called wt Car4; truncated Car4 (22-277); not shown: GST, N-terminal, cleaved) WCYEIQTKDPRSSCLGPEKWPGACKENQQSPINIVTARTKVNPRLTPFILVGYDQKQQWPIKNNQHTVEMTLGGGACIIGGDLPARYEAVQLHLHWSNGNDNGSEHSIDGRHFAMEMHIVHKKLTSSKEDSKDKFAVLAFMIEVGDKVNKGFQPLVEALPSISKPHSTSTVRESSLQDMLPPSTKMYTYFRYNGSLTTPNCDETVIWTVYKQPIKIHKNQFLEFSKNLYYDEDQKLNMKDNVRPLQPLGKRQVFKS	106
Car4 (22-277) Q79A (receptor, Mus musculus, UniProt Q64444 22-277, looked up, carbonic anhydrase IV (Car4), Mus musculus, residues 22-277; also called Q79A_(Car4); source: E. coli BL21 (DE3), purified as the wild type; not shown: GST, N-terminal, cleaved) WCYEIQTKDPRSSCLGPEKWPGACKENQQSPINIVTARTKVNPRLTPFILVGYDQKQAWPIKNNQHTVEMTLGGGACIIGGDLPARYEAVQLHLHWSNGNDNGSEHSIDGRHFAMEMHIVHKKLTSSKEDSKDKFAVLAFMIEVGDKVNKGFQPLVEALPSISKPHSTSTVRESSLQDMLPPSTKMYTYFRYNGSLTTPNCDETVIWTVYKQPIKIHKNQFLEFSKNLYYDEDQKLNMKDNVRPLQPLGKRQVFKS	292
Car4 (22-277) I70A (receptor, Mus musculus, UniProt Q64444 22-277, looked up, carbonic anhydrase IV (Car4), Mus musculus, residues 22-277; also called I70A_(Car4); source: E. coli BL21 (DE3), purified as the wild type; not shown: GST, N-terminal, cleaved) WCYEIQTKDPRSSCLGPEKWPGACKENQQSPINIVTARTKVNPRLTPFALVGYDQKQQWPIKNNQHTVEMTLGGGACIIGGDLPARYEAVQLHLHWSNGNDNGSEHSIDGRHFAMEMHIVHKKLTSSKEDSKDKFAVLAFMIEVGDKVNKGFQPLVEALPSISKPHSTSTVRESSLQDMLPPSTKMYTYFRYNGSLTTPNCDETVIWTVYKQPIKIHKNQFLEFSKNLYYDEDQKLNMKDNVRPLQPLGKRQVFKS	743
Car4 (22-277) T92A (receptor, Mus musculus, UniProt Q64444 22-277, looked up, carbonic anhydrase IV (Car4), Mus musculus, residues 22-277; also called T92A_(Car4); source: E. coli BL21 (DE3), purified as the wild type; not shown: GST, N-terminal, cleaved) WCYEIQTKDPRSSCLGPEKWPGACKENQQSPINIVTARTKVNPRLTPFILVGYDQKQQWPIKNNQHTVEMALGGGACIIGGDLPARYEAVQLHLHWSNGNDNGSEHSIDGRHFAMEMHIVHKKLTSSKEDSKDKFAVLAFMIEVGDKVNKGFQPLVEALPSISKPHSTSTVRESSLQDMLPPSTKMYTYFRYNGSLTTPNCDETVIWTVYKQPIKIHKNQFLEFSKNLYYDEDQKLNMKDNVRPLQPLGKRQVFKS	379
Car4 (22-277) H187E (mouse residue changed to its hCar4 counterpart) (receptor, Mus musculus, UniProt Q64444 22-277, looked up, carbonic anhydrase IV (Car4), Mus musculus, residues 22-277; also called H187E_(Car4); source: E. coli BL21 (DE3), purified as the wild type; not shown: GST, N-terminal, cleaved) WCYEIQTKDPRSSCLGPEKWPGACKENQQSPINIVTARTKVNPRLTPFILVGYDQKQQWPIKNNQHTVEMTLGGGACIIGGDLPARYEAVQLHLHWSNGNDNGSEHSIDGRHFAMEMHIVHKKLTSSKEDSKDKFAVLAFMIEVGDKVNKGFQPLVEALPSISKPESTSTVRESSLQDMLPPSTKMYTYFRYNGSLTTPNCDETVIWTVYKQPIKIHKNQFLEFSKNLYYDEDQKLNMKDNVRPLQPLGKRQVFKS	0.206
Car4 (22-277) V72S (mouse residue changed to its hCar4 counterpart) (receptor, Mus musculus, UniProt Q64444 22-277, looked up, carbonic anhydrase IV (Car4), Mus musculus, residues 22-277; also called V72S_(Car4); source: E. coli BL21 (DE3), purified as the wild type; not shown: GST, N-terminal, cleaved) WCYEIQTKDPRSSCLGPEKWPGACKENQQSPINIVTARTKVNPRLTPFILSGYDQKQQWPIKNNQHTVEMTLGGGACIIGGDLPARYEAVQLHLHWSNGNDNGSEHSIDGRHFAMEMHIVHKKLTSSKEDSKDKFAVLAFMIEVGDKVNKGFQPLVEALPSISKPHSTSTVRESSLQDMLPPSTKMYTYFRYNGSLTTPNCDETVIWTVYKQPIKIHKNQFLEFSKNLYYDEDQKLNMKDNVRPLQPLGKRQVFKS	60.7
Car4 (22-277) E90M (mouse residue changed to its hCar4 counterpart) (receptor, Mus musculus, UniProt Q64444 22-277, looked up, carbonic anhydrase IV (Car4), Mus musculus, residues 22-277; also called E90M_(Car4); source: E. coli BL21 (DE3), purified as the wild type; not shown: GST, N-terminal, cleaved) WCYEIQTKDPRSSCLGPEKWPGACKENQQSPINIVTARTKVNPRLTPFILVGYDQKQQWPIKNNQHTVMMTLGGGACIIGGDLPARYEAVQLHLHWSNGNDNGSEHSIDGRHFAMEMHIVHKKLTSSKEDSKDKFAVLAFMIEVGDKVNKGFQPLVEALPSISKPHSTSTVRESSLQDMLPPSTKMYTYFRYNGSLTTPNCDETVIWTVYKQPIKIHKNQFLEFSKNLYYDEDQKLNMKDNVRPLQPLGKRQVFKS	32.3
